Measurements published in US11198713B2, “Agents modulating beta-catenin functions and methods thereof” (FOG PHARMACEUTICALS, INC., priority 2017, dated 2021).
Numbered stars: 1 amine (or outer) side, 2 acyl side, 3 side chain; on linkers, the order of the positions; unused ones are H or OH. Bridge positions count the residues as written; N and C are the ends. Square brackets hold non-standard residues; d marks the D form. Primed or numbered codes have the meaning given here. MB(4) = Monomer B (PyrS), N-Alloc pyrrolidine stapling residue, (S)-3-amino-1-(allyloxycarbonyl)pyrrolidine-3-carboxylic acid, C=CCOC(=O)N1CC[C@@](N[*:1])(C(=O)[*:2])C1; R7″ = stapling residue, (R)-2-(6-heptenyl)alanine (drawn only), C=CCCCCC[C@@](C)(N[*:1])C(=O)[*:2]; R6″ = stapling residue, (R)-2-(5-hexenyl)alanine (drawn only), C=CCCCC[C@@](C)(N[*:1])C(=O)[*:2]; MB(15) = Monomer B = PyrS (PS), pyrrolidine stapling residue (Alloc on ring N); MB(11) = Monomer B (PyrS), pyrrolidine-bearing Alloc-olefin stapling residue; ME = Monomer E = RgN, acyclic alkyl-N(Alloc) olefin stapling residue; R7 = (R)-2-(6-heptenyl)alanine, C=CCCCCC[C@@](C)(N[*:1])C(=O)[*:2]; R6 = (R)-2-(5-hexenyl)alanine, C=CCCCC[C@@](C)(N[*:1])C(=O)[*:2]; MB(5) = Monomer B (PyrS), N-Alloc pyrrolidine stapling residue; MB(14) = Monomer B = PyrS, Alloc-pyrrolidine stapling residue; MF = Monomer F (SdN), acyclic alkyl-N(Alloc) stapling residue; Arg(Me2a) = CN(C)C(=N)NCCC[C@H](N)C(=O)O; Arg(Me2s) = CN=C(NC)NCCC[C@H](N)C(=O)O; 1Nal = N[C@@H](Cc1cccc2ccccc12)C(=O)O; hArg = N=C(N)NCCCC[C@H](N)C(=O)O; R8 = C=CCCCCCC[C@@](C)(N)C(=O)O; S8 = C=CCCCCCC[C@](C)(N)C(=O)O; R5 = C=CCCC[C@@](C)(N)C(=O)O; S5 = C=CCCC[C@](C)(N)C(=O)O; Aib = CC(C)(N)C(=O)O

T1: full-length beta-catenin (UniProt P35222 2-781, limits assumed)
T1 construct: mature; also called full-length ß-Catenin; β-catenin
T1 sequence (looked up): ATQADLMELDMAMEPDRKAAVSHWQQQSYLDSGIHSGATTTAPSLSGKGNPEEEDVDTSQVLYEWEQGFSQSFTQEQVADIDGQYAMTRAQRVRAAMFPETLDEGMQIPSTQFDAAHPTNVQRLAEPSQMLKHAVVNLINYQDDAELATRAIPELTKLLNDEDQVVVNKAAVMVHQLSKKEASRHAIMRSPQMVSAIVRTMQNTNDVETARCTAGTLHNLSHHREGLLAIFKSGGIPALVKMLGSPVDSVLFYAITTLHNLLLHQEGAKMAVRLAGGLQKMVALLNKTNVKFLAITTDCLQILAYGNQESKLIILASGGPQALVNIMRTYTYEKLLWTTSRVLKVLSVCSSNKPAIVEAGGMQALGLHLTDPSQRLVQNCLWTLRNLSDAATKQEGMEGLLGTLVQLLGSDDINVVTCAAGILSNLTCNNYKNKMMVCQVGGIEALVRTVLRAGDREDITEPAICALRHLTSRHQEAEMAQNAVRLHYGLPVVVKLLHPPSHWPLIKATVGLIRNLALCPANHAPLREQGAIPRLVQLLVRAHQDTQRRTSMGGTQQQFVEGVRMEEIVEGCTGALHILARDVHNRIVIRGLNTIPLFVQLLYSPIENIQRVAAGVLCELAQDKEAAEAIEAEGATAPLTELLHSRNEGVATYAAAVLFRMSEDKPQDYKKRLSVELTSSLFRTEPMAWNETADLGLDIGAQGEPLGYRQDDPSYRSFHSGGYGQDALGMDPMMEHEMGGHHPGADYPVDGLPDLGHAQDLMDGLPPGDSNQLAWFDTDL

B1: FP0495c (peptide)
peptide: Ac-A[R7]ILDAHI[MD]RVW-NH2
modifications: staple 2-9; not fully specified; printed as Ac-A-R7-I-L-D-A-H-I-MD-R-V-W-NH2; also: carbamate staple R7/MD (-N(R')-C(O)-O-)
B2: FP0212s Isomer 2 (peptide)
peptide: PAXILDAHVXRVW
modifications: not fully specified; Ac-P-A-R5-I-L-D-A-H-V-S8-R-V-W-NH2; hydrocarbon staple R5/S8
B3: FP0628_aib (peptide)
peptide: Ac-A[Aib]ILDAHI[Aib]RVW-NH2
SMILES: CC[C@H](C)[C@H](NC(=O)[C@H](Cc1c[nH]cn1)NC(=O)[C@H](C)NC(=O)[C@H](CC(=O)O)NC(=O)[C@H](CC(C)C)NC(=O)[C@@H](NC(=O)C(C)(C)NC(=O)[C@H](C)NC(C)=O)[C@@H](C)CC)C(=O)NC(C)(C)C(=O)N[C@@H](CCCNC(=N)N)C(=O)N[C@H](C(=O)N[C@@H](Cc1c[nH]c2ccccc12)C(N)=O)C(C)C

These binders were tested against T1, full-length beta-catenin (assay: competition FP, grade of FP EC50 (+++: <=100 nM)).
Description: (§1) In some embodiments, a competition fluorescence polarization assay is used to assess binding of provided compounds to beta-catenin. In an exemplary procedure, solutions of provided compounds, e.g., provided stapled peptides, were prepared in a buffer (e.g., 50 mM Tris pH 8.0, 250 mM NaCl, 2% glycerol, 0.5 mM EDTA, 0.02% w/v sodium azide) using a 3-fold serial dilution from 5 µM. Probe solution (15 nM full-length ß-Catenin, 20 nM FITC labeled peptide in buffer) was prepared and incubated for a period of time, e.g., 5 minutes, and the a volume, e.g., 40 µL per well plated in suitable plate, e.g., a black polystyrene 384-well plate (Corning). Equal volume of the serial diluted peptide was added to the plate and incubated protected from light for 15 minutes prior to read. Reads were performed on a Spectramax M5 (Molecular Devices) in duplicate. Suitable probe was FITC-PEG1-PQ-S5-ILD-S5-HVRRVWR (SEQ ID NO: 1) (hydrocarbon staple formed by two S5 via olefin metathesis) and/or FITC-bA-PQ-S5-ILD-S5-HVRRVWR (SEQ ID NO: 3) (hydrocarbon staple formed by two S5 via olefin metathesis). […] Another peptide, FPO217c (Ac-AR_8ILDAHIM$B5$RVW (SEQ ID NO: 280), with N-terminal proline removed and valine replaced with isoleucine compared to FP0025c) was prepared.

Binder | FP EC50 [nM]
AXILDAHIXRVW (not fully specified; Ac-A-MI-I-L-D-A-H-I-MF-R-V-W-NH2; carbamate staple MI/MF) [FP0587c] | ≤ 100
Ac-A[R6″]ILDAHI[MH]RVW-NH2 (staple 2-9) [FP0511a] | ≤ 100
AXILDAHIXRVW (not fully specified; Ac-A-ME-I-L-D-A-H-I-MC-R-V-W-NH2; carbamate staple ME/MC) [FP0605c] | ≤ 100
Ac-A[MF]ILDAHI[MB(5)]RVW-NH2 (staple 2-9) [FP0626c] | ≤ 100
AXILDAHIXRVW (not fully specified; Ac-A-MG-I-L-D-A-H-I-MC-R-V-W-NH2; carbamate staple MG/MC) [FP0598c] | ≤ 100
AXILDAHIXRVW (not fully specified; Ac-A-ME-I-L-D-A-H-I-MF-R-V-W-NH2; carbamate staple ME/MF) [FP0601c] | ≤ 100
Ac-A[R6″]ILDAHI[MH]RVW-NH2 (staple 2-9; not fully specified; printed as Ac-A-R6-I-L-D-A-H-I-MH-R-V-W-NH2) [FP0511c Isomer 2] | ≤ 100
Ac-A[R5]ILDAHI[MH]RVW-NH2 (staple 2-9; not fully specified; printed as Ac-A-R5-I-L-D-A-H-I-MH-R-V-W-NH2) [FP0510c Isomer 2] | ≤ 100
Ac-A[R8]ILD[Aib]HI[MB(15)]RVW-NH2 (staple 2-9) [FP0645c] | ≤ 100
AXILDAHIXRVW (not fully specified; Ac-A-ME-I-L-D-A-H-I-MB-R-V-W-NH2; carbamate staple ME/MB) [FP0604c] | ≤ 100
Ac-A[R8]ILDAHI[MB(4)][Arg(Me2s)]VW-NH2 (staple 2-9) [FP0640c] | ≤ 100
AXILDAHIXRVW (not fully specified; Ac-A-MA-I-L-D-A-H-I-MF-R-V-W-NH2; carbamate staple MA/MF) [FP0611c] | ≤ 100
Ac-A[R8]ILDAHI[MB(4)][hArg]VW-NH2 (staple 2-9) [FP0634c] | ≤ 100
Ac-A[R8]ILDAHI[MB(4)][Arg(Me2a)]VW-NH2 (staple 2-9) [FP0639c] | ≤ 100
AXILDAHIXRVW (not fully specified; Ac-A-MA-I-L-D-A-H-I-MC-R-V-W-NH2; carbamate staple MA/MC) [FP0616c] | ≤ 100
AXILDAHIXRVW (not fully specified; Ac-A-MA-I-L-D-A-H-I-MB-R-V-W-NH2; carbamate staple MA/MB) [FP0617c] | ≤ 100
AXILDAHIXRVW (not fully specified; Ac-A-MI-I-L-D-A-H-I-MG-R-V-W-NH2; carbamate staple MI/MG) [FP0588c] | ≤ 100
Ac-A[R6″]ILDAHI[MH]RVW-NH2 (staple 2-9; not fully specified; printed as Ac-A-R6-I-L-D-A-H-I-MH-R-V-W-NH2) [FP0511c Isomer 1] | ≤ 100

These binders were tested against T1, full-length beta-catenin (assay: competition FP, grade of FP EC50 (++: 100-500 nM)).
Description: as §1

Binder | FP EC50 [nM]
B1 | 100 to 500
Ac-A[MI]ILDAHI[S5]RVW-NH2 (staple 2-9; also: carbamate staple, isomer 1, olefin geometry not assigned) [FP0506c Isomer 1] | 100 to 500
Ac-A[R7″]ILDAHI[MA]RVW-NH2 (staple 2-9; not fully specified; printed as Ac-A-R7-I-L-D-A-H-I-MA-R-V-W-NH2) [FP0516a Isomer 1] | 100 to 500
Ac-A[R7″]ILDAHI[MA]RVW-NH2 (staple 2-9) [FP0516c] | 100 to 500
AXILDAHIXRVW (not fully specified; Ac-A-ME-I-L-D-A-H-I-S8-R-V-W-NH2; carbamate staple ME/S8) [FP0335c Isomer 1] | 100 to 500
Ac-A[R7]ILDAHI[MF]RVW-NH2 (staple 2-9; also: carbamate staple, olefin geometry not assigned) [FP0503c] | 100 to 500
AXILDAHIXRVW (not fully specified; Ac-A-R7-I-L-D-A-H-I-MF-R-V-W-NH2; amino staple R7/MF) [FP0503a] | 100 to 500
AXILDAHIXRVW (not fully specified; Ac-A-MA-I-L-D-A-H-I-MI-R-V-W-NH2; carbamate staple MA/MI) [FP0625c] | 100 to 500
Ac-A[R6]ILDAHI[MF]RVW-NH2 (staple 2-9; also: carbamate staple, isomer 2, olefin geometry not assigned, also called FP0502c (Peak 2)) [FP0502c Isomer 2] | 100 to 500
B2 | 100 to 500
Ac-A[R8]ILNAHI[MB(14)]RVW-NH2 (staple 2-9) [FP0218c] | 100 to 500
Ac-A[R8]ILTAHI[MB(14)]RVW-NH2 (staple 2-9) [FP0219c] | 100 to 500
AXIADAHIXRVW (not fully specified; Ac-A-R8-I-A-D-A-H-I-MB-R-V-W-NH2; carbamate staple R8/MB) [FP0406c] | 100 to 500
Ac-A[R8]ILDAHI[MB(4)]KVW-NH2 (staple 2-9) [FP0635c] | 100 to 500
Ac-A[R8]ILDAHI[MB(11)][1Nal]VW-NH2 (staple 2-9; also: carbamate staple R8/MB (-N(R')-C(O)-O-), isomer not specified) [FP0365c] | 100 to 500
Ac-A[R8]ILDAHI[MB(4)]K(Me)VW-NH2 (staple 2-9) [FP0636c] | 100 to 500
AXILDAHIXAVW (not fully specified; Ac-A-R8-I-L-D-A-H-I-MB-A-V-W-NH2; carbamate staple R8/MB) [FP0410c] | 100 to 500
B3 | 100 to 500
AXILDAHIXRVW (not fully specified; Ac-A-MG-I-L-D-A-H-I-MF-R-V-W-NH2; carbamate staple MG/MF) [FP0594c] | 100 to 500
AXILDAHIXRVW (not fully specified; Ac-A-R5-I-L-D-A-H-I-MF-R-V-W-NH2; carbamate staple R5/MF) [FP0501c] | 100 to 500
Ac-A[ME]ILDAHI[S8]RVW-NH2 (staple 2-9) [FP0335a] | 100 to 500
